Data as given in patent US20240209456, “METHODS AND COMPOSITIONS RELATED TO CELL-CYCLE RNA's” (BETH ISRAEL DEACONESS MEDICAL CENTER, published 2024).

T1: H2A.Z N-terminal peptide
T1 chain: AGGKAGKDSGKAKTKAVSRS

T2: acH2A.Z N-terminal peptide (K7 acetylated)
T2 chain: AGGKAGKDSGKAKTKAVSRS


Columns and labels:
[1] = molecular target: T1, H2A.Z N-terminal peptide; assay: EMSA; peptide 1 uM-10 mM, glutaraldehyde crosslink; details: protein: synthetic; tags: synthetic peptide, AnaSpec; label: 5'-32P; predicted stem-loop
Procedure: (§1) Indeed, mutation of RM9A abolishing the predicted stem-loop structure, did change the strength and the mobility of the RNA-TIP60 complexes (Mut RM9A; FIG. 3E, lane 5).
(§2) RNA oligonucleotides (15 pmol) were end-labeled with [γ-³²P] ATP (Perkin Elmer) and T4 polynucleotide kinase (New England Biolabs). Reactions were incubated at 37° C. for 1 h and then passed through G-25 spin columns (GE Healthcare) according to the manufacturer's instructions to remove unincorporated radioactivity. Labeled samples were gel-purified on 10% polyacrylamide gels. Binding reactions were carried out in 10 μL volumes in the following buffer: 5 mM Tris pH 7.4, 5 mM MgCl₂, 1 mM DTT, 3% v/v glycerol, 100 mM NaCl. 5 μg of full length purified H2A.Z (Abcam) and TIP60 (SignalChem) proteins were incubated with 1.1 nM of ³²P-labeled ss RNAs. All reactions were assembled on ice and then incubated at room temperature for 30 min. Samples were loaded onto 6% native polyacrylamide gels (0.5×TBE) at 4° C. for 3 h at 140 V. Various concentrations (1 μM-10 mM) of H2A.Z and K7 acetylated H2A.Z peptides (AnaSpec) were incubated with a fixed amount of probe in 50 mM Tris-HCl pH 7.5, 100 mM NaCl, 0.4 mM EDTA, and 40 U/ml RNasin, 1 mM DTT, 50% glycerol in a final volume of 10 μL. Thereafter, 1 μl glutaraldehyde (0.2% final concentration) was added into the mixture and incubated at room temperature for 15 minutes. […]

[2] = molecular target: T2, acH2A.Z N-terminal peptide (K7 …); assay: EMSA; K7 acetylation did not abrogate binding; glutaraldehyde crosslink; details: protein: synthetic, tags: synthetic peptide, AnaSpec, label: 5'-32P, predicted stem-loop
Procedure: as §1, §2

[3] = molecular target: T3, Histone H2A.Z, full length (UniProt P0C0S5 P0C0S5:2-128); assay: EMSA; 5 mM Tris pH 7.4, 5 mM MgCl2, 100 mM NaCl, RT; details: tags: Abcam; label: 5'-32P; predicted stem-loop
Procedure: as §1, §2

[4] = molecular target: T4, TIP60 (KAT5), full length (UniProt Q92993 Q92993:1-513); assay: as above; details: tags: SignalChem; label: 5'-32P; predicted stem-loop
Procedure: as §1, §2

[5] = molecular target: T3, Histone H2A.Z, full length; assay: EMSA; no detectable RNP; details: tags: Abcam; label: 5'-32P
Procedure: as §1
(§3) RNA oligonucleotides (15 pmol) were end-labeled with [γ-³²P] ATP (Perkin Elmer) and T4 polynucleotide kinase (New England Biolabs). Reactions were incubated at 37° C. for 1 h and then passed through G-25 spin columns (GE Healthcare) according to the manufacturer's instructions to remove unincorporated radioactivity. Labeled samples were gel-purified on 10% polyacrylamide gels. Binding reactions were carried out in 10 μL volumes in the following buffer: 5 mM Tris pH 7.4, 5 mM MgCl₂, 1 mM DTT, 3% v/v glycerol, 100 mM NaCl. 5 μg of full length purified H2A.Z (Abcam) and TIP60 (SignalChem) proteins were incubated with 1.1 nM of ³²P-labeled ss RNAs. All reactions were assembled on ice and then incubated at room temperature for 30 min. Samples were loaded onto 6% native polyacrylamide gels (0.5×TBE) at 4° C. for 3 h at 140 V. Various concentrations (1 μM-10 mM) of H2A.Z and K7 acetylated H2A.Z peptides (AnaSpec) were incubated with a fixed amount of probe in 50 mM Tris-HCl pH 7.5, 100 mM NaCl, 0.4 mM EDTA, and 40 U/ml RNasin, 1 mM DTT, 50% glycerol in a final volume of 10 μL. Thereafter, 1 μl glutaraldehyde (0.2% final concentration) was added into the mixture and incubated at room temperature for 15 minutes. Samples were loaded onto 10% native polyacrylamide gels (0.5×TBE) at 4° C. for 3 h at 170 V. All gels were dried upon fixation with Methanol and Acetic Acid and exposed to X-ray film.

[6] = molecular target: T4, TIP60 (KAT5), full length; assay: EMSA; no detectable RNP; details: tags: SignalChem; label: 5'-32P
Procedure: as §1, §3

T4 sequence (Q92993 whole entry, one chain of several): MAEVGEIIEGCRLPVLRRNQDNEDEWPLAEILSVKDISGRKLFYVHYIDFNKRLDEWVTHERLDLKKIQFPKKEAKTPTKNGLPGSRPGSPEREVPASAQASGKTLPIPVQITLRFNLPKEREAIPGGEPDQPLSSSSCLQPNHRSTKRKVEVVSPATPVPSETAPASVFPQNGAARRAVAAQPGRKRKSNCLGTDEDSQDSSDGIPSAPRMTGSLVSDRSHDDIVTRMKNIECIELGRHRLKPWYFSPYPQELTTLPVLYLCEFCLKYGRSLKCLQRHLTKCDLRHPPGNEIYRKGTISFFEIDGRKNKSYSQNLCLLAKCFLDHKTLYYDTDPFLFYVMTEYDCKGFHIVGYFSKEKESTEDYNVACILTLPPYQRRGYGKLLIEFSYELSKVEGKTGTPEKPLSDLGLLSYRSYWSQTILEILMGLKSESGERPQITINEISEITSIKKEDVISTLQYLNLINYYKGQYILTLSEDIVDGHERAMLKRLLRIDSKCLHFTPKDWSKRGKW

| Binder | binding result [1] | binding result [2] | binding result [3] | binding result [4] | binding result [5] | binding result [6] |
| --- | --- | --- | --- | --- | --- | --- |
| GGCGUGGCGGUGGGCGCGCAGU (ssRNA) [RM9A] | binds | binds | binds | binds | – | – |
| GCCCUUUCCCCAGCCUUAGCGA (ssRNA) [UR3] | – | – | – | – | no binding | no binding |
| GCGCCCUGCAGCCUGGUACGCG (ssRNA) [UR1] | – | – | – | – | no binding | no binding |
| CUUUCCUCCACUCUCCCUGGGA (ssRNA) [UR2] | – | – | – | – | no binding | no binding |
